Usually Kd stands for a measure of binding affinity in units of concentration. Low values mean higher affinity, high ones lower affinity.

For one test, the target named is FcgR3a(F), biotinylated (UniProt P08637). The test can be described thus: SPR. A general note: SPR reads the build-up and loss of mass on a sensor chip optically.
Another test addresses FcgR3a(V), biotinylated (UniProt P08637). The test can be described thus: SPR.
For the next test, the target named is FcgR3b Biotinylated (UniProt O75015). The test can be described thus: SPR.
The target of the next test is C1q complement component (UniProt P02745). The test can be described thus: BLI.
UniProt P02745, sequence (P02745 23-245, chain 1 of 3): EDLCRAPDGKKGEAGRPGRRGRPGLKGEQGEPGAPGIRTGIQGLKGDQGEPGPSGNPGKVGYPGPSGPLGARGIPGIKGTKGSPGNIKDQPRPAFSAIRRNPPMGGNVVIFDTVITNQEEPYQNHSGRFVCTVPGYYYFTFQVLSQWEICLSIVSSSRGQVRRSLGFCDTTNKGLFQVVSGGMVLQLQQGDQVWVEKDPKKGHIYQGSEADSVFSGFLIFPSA
UniProt P02745, sequence (P02746 28-253, chain 2 of 3, further chain): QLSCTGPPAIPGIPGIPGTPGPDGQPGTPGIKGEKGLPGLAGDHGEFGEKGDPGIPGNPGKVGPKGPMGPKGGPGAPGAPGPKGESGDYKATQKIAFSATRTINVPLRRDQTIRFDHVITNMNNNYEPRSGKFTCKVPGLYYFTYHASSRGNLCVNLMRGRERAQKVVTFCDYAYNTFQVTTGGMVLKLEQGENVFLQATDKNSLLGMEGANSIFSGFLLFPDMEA
UniProt P02745, sequence (P02747 29-245, chain 3 of 3, further chain): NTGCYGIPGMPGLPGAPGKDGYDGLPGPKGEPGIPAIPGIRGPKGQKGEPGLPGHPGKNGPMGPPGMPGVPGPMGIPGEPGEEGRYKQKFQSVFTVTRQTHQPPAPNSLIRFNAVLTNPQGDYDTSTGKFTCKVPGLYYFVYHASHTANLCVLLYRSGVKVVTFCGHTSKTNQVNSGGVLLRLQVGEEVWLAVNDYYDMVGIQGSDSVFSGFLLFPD

UniProt O75015, sequence (O75015 17-200): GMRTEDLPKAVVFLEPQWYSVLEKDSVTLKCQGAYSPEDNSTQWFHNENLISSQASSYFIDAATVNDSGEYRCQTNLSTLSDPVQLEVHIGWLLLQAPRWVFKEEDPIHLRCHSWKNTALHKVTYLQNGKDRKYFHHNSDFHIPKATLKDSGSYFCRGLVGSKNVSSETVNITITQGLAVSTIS

Turning to CIS43-LS (IgG1m3-LS), the Kd with FcgR3a(F), biotinylated worked out at 2780 nM; with FcgR3a(V), biotinylated, 590 nM; in the test with FcgR3b Biotinylated, 5010 nM; with C1q complement component it was 1.5 nM.
As to CIS43-LS-G236A (IgG1m3-LS-GA), the Kd came out at 4620 nM with FcgR3a(F), biotinylated; 1270 nM with FcgR3a(V), biotinylated; 17400 nM in the test with FcgR3b Biotinylated.
As for CIS43 wild-type mAb (IgG1m3), the Kd in the test with FcgR3a(F), biotinylated came out at 2510 nM; with FcgR3a(V), biotinylated, 590 nM; with FcgR3b Biotinylated, 5240 nM; with C1q complement component, 1.8 nM.
As to CIS43-LS-GAALIE (IgG1m3-LS-GAALIE), the Kd in the test with FcgR3b Biotinylated worked out at 1020 nM.
CIS43-LS-AFUC (afucosylated CIS43-LS): the Kd with FcgR3a(F), biotinylated is 160 nM; with FcgR3b Biotinylated, 330 nM; in the test with C1q complement component, 1.7 nM.

For the origin of these results see PMC12403835.
